Assay results: patent publication US20180171001A1

Assays:
Experiment in all cases: cell-based or functional assay
[1] = biological target: Env of HIV-1 strain 231965.c1 (HIV-1)
[2] = biological target: Env of HIV-1 strain 250-4 (HIV-1)
[3] = biological target: Env of HIV-1 strain 251-18 (HIV-1)
[4] = biological target: Env of HIV-1 strain 3016.v5.c45 (HIV-1)
[5] = biological target: Env of HIV-1 strain 3365.v2.c20 (HIV-1)
[6] = biological target: Env of HIV-1 strain 3415.v1.c1 (HIV-1)
[7] = biological target: Env of HIV-1 strain Du172.17 (HIV-1)
[8] = biological target: Env of HIV-1 strain H086.8 (HIV-1)
[9] = biological target: Env of HIV-1 strain PVO.4 (HIV-1)
[10] = biological target: Env of HIV-1 strain R1166.c1 (HIV-1)
[11] = biological target: Env of HIV-1 strain REJO4541.67 (HIV-1)
[12] = biological target: Env of HIV-1 strain X1254_c3 (HIV-1)
[13] = biological target: Env of HIV-1 strain YU2.DG (HIV-1)
[14] = biological target: Env of HIV-1 strain ZM109F.PB4 (HIV-1)
[15] = biological target: Env of HIV-1 strain ZM53M.PB12 (HIV-1)

| Binder | neutralization IC50 [1] | neutralization IC50 [2] | neutralization IC50 [3] | neutralization IC50 [4] | neutralization IC50 [5] | neutralization IC50 [6] | neutralization IC50 [7] | neutralization IC50 [8] | neutralization IC50 [9] | neutralization IC50 [10] | neutralization IC50 [11] | neutralization IC50 [12] | neutralization IC50 [13] | neutralization IC50 [14] | neutralization IC50 [15] |
| --- | --- | --- | --- | --- | --- | --- | --- | --- | --- | --- | --- | --- | --- | --- | --- |
| γ4κ3 (antibody, V domains shown) VH: QIHLVQSGTEVKKPGSSVTVSCKAYGVNTFGLYAVNWVRQAPGQSLEYIGQIWRWKSSASHHFRGRVIISAVDLTGSSPPISPLEIKNLTSDDTAVYFCTTTSTSDRWSGLHHDGVMAFSSWGQGTLISVSA VL: DIQMTQSPSTLSASIGDTVRISCRASQSITGNWLAWYHQRPGKAPRLLIYRGSRLLGGVPSRFSGSAAGTDFTLTIANLQAEDFGTFYCQQYDTYPGTFGQGTKVEVKR | > 15 µg/mL | > 15 µg/mL | > 15 µg/mL | > 15 µg/mL | > 15 µg/mL | > 15 µg/mL | > 15 µg/mL | > 15 µg/mL | > 15 µg/mL | > 15 µg/mL | > 15 µg/mL | 18 µg/mL | > 15 µg/mL | > 15 µg/mL | > 15 µg/mL |
| γ8κ11 (antibody, V domains shown) VH: QIHLVQSGTGVKKPGSSVTVSCKAYGVNTFGLYAVNWVRQAPGQGLEYIGQIWRWKSSASHHFRGRVLISAVDLTGSSPPITSLEIKNVTSDDTAVYFCTTTSTYDKWSGLYHDGVMAFSSWGQGTLISVSA VL: DIQMTQSPSTLSASVGGTVRISCRASQSITGGWLAWYHQRPGKAPRLLIYRGSRLLGGVPSRFSGSAAGTDFTLTIANLQAEDFGTFYCQQYDTYPGTFGQGTKVEVKR | 2.49 µg/mL | > 15 µg/mL | > 15 µg/mL | 2.46 µg/mL | > 15 µg/mL | > 15 µg/mL | > 15 µg/mL | > 15 µg/mL | 8.16 µg/mL | 3.88 µg/mL | > 15 µg/mL | 4.14 µg/mL | 9.35 µg/mL | > 15 µg/mL | > 15 µg/mL |
| γ22κ3 (antibody, V domains shown) VH: QIHLVQSGTEVKKPGSSVTVSCKAYGVNTFGLYAVNWVRQAPGQSLEYIGQIWRWKSSASHHFRGRVLISAVDLTGPSPPISSLEIKNLTSDDTAVYFCTTTSTYDKWSGLHHDGVMAFSSWGQGTLISVSA VL: DIQMTQSPSTLSASIGDTVRISCRASQSITGNWLAWYHQRPGKAPRLLIYRGSRLLGGVPSRFSGSAAGTDFTLTIANLQAEDFGTFYCQQYDTYPGTFGQGTKVEVKR | > 15 µg/mL | > 15 µg/mL | > 15 µg/mL | > 15 µg/mL | > 15 µg/mL | > 15 µg/mL | > 15 µg/mL | > 15 µg/mL | > 15 µg/mL | > 15 µg/mL | > 15 µg/mL | > 15 µg/mL | > 15 µg/mL | > 15 µg/mL | > 15 µg/mL |
| γ46κ5 (antibody, V domains shown) VH: QIHLVQSGTEVKKPGSSVTVSCKAYGVNTFGLYAVNWVRQAPGQGLEYIGQIWRWKSSASHHFRGRVLISAVDLTGSSPPISSLEIKNVTSDDTAVYFCTTTSTYDKWSGLHHDGVVAFSSWGQGTLISVSA VL: DIQMTQSPSTLSASTGDTVRISCRASQSITGNWVAWYQQRPGKAPRLLIYRGAALLGGVPSRFRGSAAGTDFTLTIGNLQAEDFGTFYCQQYDTYPGTFGQGTKVEVKR | 0.525 µg/mL | > 15 µg/mL | 0.609 µg/mL | 0.111 µg/mL | > 15 µg/mL | > 15 µg/mL | > 15 µg/mL | 1.75 µg/mL | 0.129 µg/mL | 0.922 µg/mL | 0.196 µg/mL | 1.79 µg/mL | 0.553 µg/mL | > 15 µg/mL | 12.4 µg/mL |
